Measured values as given in paper PMC6447857, “Structural Study of Agmatine Iminohydrolase From Medicago truncatula, the Second Enzyme of the Agmatine Route of Putrescine Biosynthesis in Plants” (Frontiers in Plant Science, 2019).

Molecular target: the molecule itself
Assay: SEC-MALS; in-line SEC (WTC-015S5 column) with MALS detector, 5.5 mg/ml MtAIH solution loaded; monomer to dimer

B1: agmatine iminohydrolase from Medicago truncatula (enzyme)
chain: SNAHGFHMPAEWEPHSQCWIGWPERADNWRDGAVHAQLVFTRVAAAISRFEKVTVCASSAQWENARNQLPDHVRVVEISSNDSWFRDIGPTFVVRRETSKSDDAEHRIAGIDWTFNSWGGLEDGCYCDWSLDSLVKKKILDVERIPRFSHSMVLEGGSIHVDGEGTCITTEECLLNKNRNPHLSKSQIEDELKAYLGVRKVIWLPRGLYGDDDTNGHVDNMCCFVRPGAVLLSWTDDKTDPQYERSEEAYSLFSSVTDANGRKFEVIKLHVPGPLYMTEKEAAGVFQDDGAKPRLPGTRLAASYVNFYIANGAIIAPQFGDKKWDDEAIRVLSKTFPHHEVVGIEGSREIVLSGGNIHCITQQQPAI
notes: Ser-Asn-Ala linker from the vector pMCSG68 that is not cleaved from the expressed protein; agmatine iminohydrolase, Medicago truncatula, UniProt G7JT50, open reading frame MTR_4g112810, encoded protein starting from codon number 11 to the end; theoretical mass of the construct 41.2 kDa; Homodimer by MALS, SAXS and in both crystal forms; In 6NIC the protein holds the small molecule …
For B1, which “stoichiometry N” value is on record?
The value was 2.
